Stoichiometry N data for one substance are collected here from publication PMC7719794.

For orientation: stoichiometry N means a count of units in the complex or per binding partner.

This test deals with chicken CD8αα homodimer (chicken). As to the kind of experiment: crystal structure; sitting-drop vapour diffusion at 291 K, 10 mg/ml; cCD8αα and pMHC-I mixed at a 2:1 molar ratio at 277 K overnight; three crystals: pBF2*1501, cCD8αα/pBF2*1501, cCD8αα/pBF2*0401; two complexes (A and B) in the asymmetric unit of each co-crystal.

For the substance chicken CD8αα homodimer (receptor), the stoichiometry N came out at 2.
